Measurements: FireProtDB (doi:10.1016/s0014-5793(98)01666-4)
Several values for one entry are separate records, joined by “and”; a condition that tells them apart may be missing. Identical values can stand only once.

Settings: Rattus norvegicus, pH 7.4, Thermal, DSC, EDTA 10 mM, NaCl 0.20 M, transition: 2, reversible: yes, whole UniProt chain shown

B1: Parvalbumin alpha wild type, P02625 (protein)
chain: MSMTDLLSAEDIKKAIGAFTAADSFDHKKFFQMVGLKKKSADDVKKVFHILDKDKSGFIEEDELGSILKGFSSDARDLSAKETKTLMAAGDKDGDGKIGVEEFSTLVAES
unfolding enthalpy (calorimetric) (25 °C): 70 kcal/mol and 75 kcal/mol
unfolding enthalpy (van 't Hoff) (25 °C): 71 kcal/mol and 74 kcal/mol
unfolding free energy (25 °C): 3.5 kcal/mol and 4.7 kcal/mol
Tm: 53.6 °C
unfolding enthalpy (calorimetric): 75 kcal/mol
unfolding enthalpy (van 't Hoff): 74 kcal/mol
